# Measurements reported in the DeepSol protein solubility set.
# Assay: soluble on expression in E. coli; label from the status in PepcDB or PDB records
row,Sequence,soluble on expression in E. coli
1,MKVRAIFLNFSVQLTPPSRLVILRNQSVFFSALLLNCPPLLPLPTEASPCYAVSESQPYARKQSCIITAARSAPSVDHIQVVLCRPHNSLLVCPSSHARSSTAVMATEDELRELLPKMRFNKEFKKKQKYQYKKRVEAREKEREIVTGKRRPASEQIQSASDGAKTKTTAAKKSGGAGRAGTKRKPKTRVPKLKVANVETGKETLTKKKARELVQENRKKKACAKKEPKLTAKSTRAGAATAAVVSSETLEGKQSKARVTKDELPATAAQAASSVEPTQTLTQAERDRELLARAIRGDDLLGSDAAAGVADDAAFIRQDPSLYPDHAFLDDYAEKKHAEAVSADELLQNAHHFFKKLSKQERALNKVAKEHINHLRAVNRRGGDKQGFRYVVPKNVKQVVRELLSAQKARDGDEDPETLVDTEQLVSTFGGDGVAETSEKPVRRSRRRRLRTYSDFYQFQVSRRWTRNAENFLKRSRSNKLLFEAKKHQRTIKHF,not soluble
2,MGSDKIHHHHHHMLTSRKFFPSLSSLRALEALDRLGSASAVAEELALTQSAVSRQLQTLEGQMGVELIRRDRKRLSLTPAAQDYVTEIREALNRIAQASLRLQVAPAGGTVNLAILPTFGMRWLMPRLPEFSRLHPDITINMTTRLRPFNFASEPFDAALHFGEPDWPGTDRLLLRAERVLPVCAPGLLPHGAPKSPADLLRLPLLHIQTRPRAWQDWFAQMGVTCPETLPGTLYDQFATIGQAALHGLGVALLPNYVVEQDLATGRLVAAYPDAVETLGAYYLVWPRARGNDPSLRAFRHWLAAQAEPEEGLPR,not soluble
3,MGSDKIHHHHHHMLMETTRLLDIRSMSVEFPGVKALDQVDFTLNRGEIVALLGENGAGKSTLIKALTGVYHRSSGDIILDGIAINPVNTAHAQSLGIGTVYQEVNLLPNLSVAANLFIGREPTRWGIVDQHKILLQAEALLLNYGLAIDVSHPLGNYSIAVQQIVAIARAVDLSAKVLILDEPTASLDAKEVDMLLDILRKLRDRGIGMIFVTHFLDQVYRISDRITVLRNGRLVGTLPTAELPRIELVQMMLGHSFDETLLKRGEHSDVSGEPIVQFKHYGRRGSINDFELSVRPGEIVGLAGLLGSGRTETAQLIFGINVPDAGEAWVDGKKINIRTPRAAGKLGFGYCPEDRKTDGIVGAATVRENIILALQAQRGWLKPISLREQTRIAEKFISLLGIRTPSAEQEIQYLSGGNQQKVLLSRWLATEPRFLILDEPTRGIDVGAHAEIIRLIEKLCEQGMALLVISSELEELTGYADRIIVLRDRQHVAHLEHSEISVAAVMQAIAVQTGAADDRQ,not soluble
4,MSFEQTLEKYAALAVNVGVNIQPGQTLSISAPLEAVQFVRLVTEKAYKSGAKHVYVDWNDETLTRLKFDLAPEEAFAEFPSWKAHAREELAKEGAAFMSIYAENPDLLKGVEASRIATAHKVAGEAMKVYRDYVQADKVSWCVISVPTKEWAAKVFPDVAPEEQEAKLWDAIFKATRADLENPVEAWKEHDETLHTKVDYLNEKHYKALHYTGPGTDLTIELPEKHVWAGAGSLNEKNVPFMANIPTEEVFTMPLKTGVNGQVSSTKPLVFAGNIIDNFTLTFENGRIVDYKAEAGEEALKHLVETDEGSHFLGEVALVPHDSPISNTNVLFYNTLFDENASCHLAIGNAYAFNLVGGKTMSKEELAENGANASITHNDFMIGSAELDIDGITADGRHEPIFRKGNWAF,not soluble
5,MVLAALVLVLEGEGLPEPLGLRGFFYGLLREVAPEVHDQGENPFALGFGGREGAAWARVSLLVEGLYARLAPRLYALEGEEVRLGPPFRVRAVLQEGHPWAGVSTYPRLFQGPPSRDLALRFASPTFFRRKGVHYPVPEPRLVLESLLRRLEAFGPLKAPEGVREALLERTTVRSLEGRTLPARTEVDTAGFVGRVVYHLPRATEEEALWLSALGRFAFYSGVGAKTSLGYGRARAESA,soluble
6,MIQFNQVSKSYEDGTKAVDSLHLEIKKGEFFVLIGPSGCGKTTTMKMINRLIETTEGSILIDGKDIQQYNINELRWDIGYVLQQIALFPHMTIAENIAVVPEMRKWSKEKIKARVDELLQMVGLDPDVYRNRMPDELSGGQKQRIGVVRALAANPKIVLMDEPFSALDPLSREQLQKDIVQLQKKIQKTIVFVTHDMQEALSLGDRICIMKEGKVVQLDTPEGIIHNPKNEFVEEFIGNRGRPWYEGKSIEDVLPLDESIRIEGEALSLHSSLQEALVRLRADEVVPVEEKGRYVGALTSRHIVNYIVEQMKERG,not soluble
